The term Kd denotes the free concentration of one partner at which half of the binding sites on the other are occupied at equilibrium, for simple one-to-one binding. Lower therefore signals a tighter complex. Usually koff stands for a measure of how fast the partners let go of each other. A higher koff goes with fast dissociation. In general, kon refers to the rate constant with which the complex forms. A low value points to slower complex formation. What is called t½ is how long it takes for the measured level to halve. Read a low t½ as rapid decline. By EC50 is commonly meant the concentration giving half of the maximal effect. High values mean a need for much substance, low ones an effect from little substance.

Here are results for twelve molecules from patent US20150037328A1 (Pfizer, published 2015).

Assay [1] deals with T1, human CXCR4 (chemokine (C-X-C motif) receptor 4) (human, UniProt P61073 1-352).
T1 construct: Endogenous on human tumour cell lines (Ramos, HPB-ALL, Raji, Jurkat, MM1.S, RPMI-8226, MOLP-8, MOLT-4) or transfected into CHO-K1 cells (DiscoveRx); also called CXCR4 receptor
Description: flow cytometry on HPB-ALL cells, Fab at 2.5 µg/ml. On the technique in general: In flow cytometry, cells or beads pass a laser one at a time.

Assay [2] has as its target T2, human CXCR4-enriched lipoparticles (LEV101, Integral Molecular) (human, UniProt P61073 1-352).
T2 construct: Bought reagent; CXCR4 held in lipoparticles captured by biotinylated WGA on an SA chip; also called Lipoparticles containing CXCR4 proteins
Briefly: biosensor kinetic titration, Fab over captured human CXCR4 lipoparticles. On the procedure:
The binding affinity of each Fab was determined using human CXCR4-enriched lipoparticles (LEV101, Integral Molecular, Philadelphia Pa.). Biotinylated WGA (Sigma Aldrich, St. Louis Mo.)) can be coated on the SA chip to facilitate capturing lipoparticles containing CXCR4 proteins. […] J. Mol. Recognit.

Assay [3] has as its target T1, human CXCR4 (chemokine (C-X-C motif) …). Description: flow cytometry on HPB-ALL cells, Fab at 0.25 µg/ml.
For assay [4] the target is unchanged. Description: flow cytometry on HPB-ALL cells, Fab at 0.25 µg/mL. On the procedure:
Binding of CXCR4 Fabs to CXCR4-expressing cells were measured by flow cytometry on HPB-ALL (Human T cell leukemia) cells. 150,000 HPB-ALL cells were resuspended in 100 uL FACS buffer (1×PBS+0.5% BSA) on 96 well plates. […] After removing the primary antibodies the cells were washed twice with FACS buffer and then resuspended in FACS buffer and 2 uL (3 ug) of 2nd Ab (Alexa Fluor 647-conjugated goat anti-human IgG, F(ab′)2 specific, Jackson ImmunoResearch Laboratories, West Grove Pa.) was then added to each well. The plates were incubated at 4 degree for another 30 min. Fluorescence signals were acquired by cell analyzer LSRII (BD Biosciences, San Jose Calif.).

Assay [5] has the same target. Description: cell-based or functional assay.
Assay [6] shares this target. Description: cell-based or functional assay. The source holds these as a separate data set.
Assay [7] deals with T3, cynomolgus CXCR4 (cynomolgus, UniProt Q28474 1-352).
T3 construct: whole, on cells; On Cyno-CXCR4 transfected CHO cells and on HSC-F (cynomolgus T cell line); also called Cyno-CXCR4; CynoCXCR4
Briefly: flow cytometry on HSC-F (cynomolgus T cell line) cells, dilution series 0.007-267 nM. On the procedure: (§1) Binding was detected by 2nd Ab (Alexa Fluor 647-conjugated goat anti-human IgG, Fcgamma specific, Jackson ImmunoResearch Laboratories, West Grove Pa.) and acquired with LSRFortessa cell analyzer (BD Biosciences, San Jose Calif.). Curve fit and EC50 calculation was performed with Prism software (GraphPad Software, La Jolla Calif.). Tables 9A and 9B and FIGS. 3A and 3B.

Assay [8] deals with T3, cynomolgus CXCR4. Briefly: flow cytometry on Cyno-CXCR4 transfected CHO cells, dilution series 0.007-267 nM. The method, then: as §1
Assay [9] addresses T1, human CXCR4 (chemokine (C-X-C motif) …). Briefly: flow cytometry on HPB-ALL cells, dilution series 0.007-267 nM. On the procedure:
as §1

The target is the same in assay [10]. Briefly: flow cytometry on Raji cells, dilution series 0.007-267 nM. The method, then:
as §1

T2 sequence (P61073 whole entry): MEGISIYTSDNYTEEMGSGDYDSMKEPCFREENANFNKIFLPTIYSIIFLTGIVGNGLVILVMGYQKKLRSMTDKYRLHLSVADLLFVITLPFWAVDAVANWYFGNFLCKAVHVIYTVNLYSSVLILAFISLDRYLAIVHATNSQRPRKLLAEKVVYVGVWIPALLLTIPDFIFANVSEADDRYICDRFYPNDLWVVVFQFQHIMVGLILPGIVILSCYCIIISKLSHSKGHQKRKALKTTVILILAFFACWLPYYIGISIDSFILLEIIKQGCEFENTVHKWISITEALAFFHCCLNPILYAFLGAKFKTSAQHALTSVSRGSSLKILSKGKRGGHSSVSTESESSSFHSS
T1 sequence (P61073 whole entry): as above
T3 sequence (Q28474 whole entry): as the sequence (P61073 whole entry) above, with M24I, N35H, K38R, R146K, N176S counted along it

B1: h3G10.A57 VH / h3G10.2.72 VL Fab (Fab, V domains shown)
VH: EVQLVESGGGLVQPGGSLRLSCAASGFTFSDYYMSWVRQAPGKGLEWVGFIRHKANFYTTEYSTSVKGRFTISRDDSKNSLYLQMNSLKTEDTAVYYCARDLPGFAYWGQGTLVTVSS
VL: DIVMTQSPDSLAVSLGERATINCKSSQSLFNSRTRKNYLAWYQQKPGQPPKLLIYWASARESGVPDRFSGSGSGTDFTLTISSLQAEDVAVYYCKQSFRLRTFGGGTKVEIK
notes: Tested as Fab
Consider B1, for which the MFI in [1] was found to be 4330. Besides, in assay [2], the affinity, expressed as Kd, was 1.12 nM; the off-rate constant (koff) was 0.0013 s⁻¹; the kon amounted to 1.1e+06 M⁻¹ s⁻¹; the “t½” value is 9 min. Moreover, the MFI in assay [3] is 1220. In assay [4], this molecule returned an MFI of 2770.

B2: humanized anti-CXCR4 antibody h3G10.2.37.2.72 (antibody, V domains shown)
VH: EVQLVESGGGLVQPGGSLRLSCAASGFTFSDYYMSWVRQAPGKGLEWVGFIRHKANFYTREYSTSVKGRFTISRDDSKNSLYLQMNSLKTEDTAVYYCARDLPGFAYWGQGTLVTVSS
VL: DIVMTQSPDSLAVSLGERATINCKSSQSLFNSRTRKNYLAWYQQKPGQPPKLLIYWASARESGVPDRFSGSGSGTDFTLTISSLQAEDVAVYYCKQSFRLRTFGGGTKVEIK
Regarding B2, the “IC50 (M), Calcium Flux Activity (average of 3 experiments)” value (“IC50 (M), Calcium Flux Activity” below) in [5] stood at 1.36e-09 M. The “EC50 (M), cAMP assay, CHO-K1 cells transfected with human CXCR4” value (“EC50 (M), cAMP assay” for short) in assay [6] stood at 3.41e-08 M.

B3: humanized anti-CXCR4 antibody h3G10.1.91.A58A (antibody, V domains shown)
VH: EVQLVESGGGLVQPGGSLRLSCAASGFTFSDYYMSWVRQAPGKGLEWVGFIRHKANFETTEYSTSVKGRFTISRDDSKNSLYLQMNSLKTEDTAVYYCARDLPGFAYWGQGTLVTVSS
VL: DIVMTQSPDSLAVSLGERATINCKSSQSLFNSHTRKNYLAWYQQKPGQPPKLLIYWASARGSGVPDRFSGSGSGTDFTLTISSLQAEDVAVYYCKQSFRLRTFGGGTKVEIK
As to B3, in assay [5], the “IC50 (M), Calcium Flux Activity” value was 2.35e-09 M.

B4: humanized anti-CXCR4 antibody h3G10 (antibody, V domains shown)
VH: EVQLVESGGGLVQPGGSLRLSCAASGFTFSDYYMSWVRQAPGKGLEWVGFIRHKANGYTTEYSTSVKGRFTISRDDSKNSLYLQMNSLKTEDTAVYYCARDLPGFAYWGQGTLVTVSS
VL: DIVMTQSPDSLAVSLGERATINCKSSQSLFNSRTRKNYLAWYQQKPGQPPKLLIYWASARESGVPDRFSGSGSGTDFTLTISSLQAEDVAVYYCKQSFNLRTFGGGTKVEIK
For B4, in [5], the “IC50 (M), Calcium Flux Activity” value stood at 2e-09 M.

B5: humanized anti-CXCR4 antibody h3G10.A57.A58A (antibody, V domains shown)
VH: EVQLVESGGGLVQPGGSLRLSCAASGFTFSDYYMSWVRQAPGKGLEWVGFIRHKANFYTTEYSTSVKGRFTISRDDSKNSLYLQMNSLKTEDTAVYYCARDLPGFAYWGQGTLVTVSS
VL: DIVMTQSPDSLAVSLGERATINCKSSQSLFNSHTRKNYLAWYQQKPGQPPKLLIYWASARGSGVPDRFSGSGSGTDFTLTISSLQAEDVAVYYCKQSFRLRTFGGGTKVEIK
With B5, in assay [5], the “IC50 (M), Calcium Flux Activity” value was 1.31e-09 M. For the same molecule, the “EC50 (M), cAMP assay” value in [6] is 2.43e-08 M.

B6: h3G10.A57 VH / h3G10.A58A VL Fab (Fab, V domains shown)
VH: EVQLVESGGGLVQPGGSLRLSCAASGFTFSDYYMSWVRQAPGKGLEWVGFIRHKANFYTTEYSTSVKGRFTISRDDSKNSLYLQMNSLKTEDTAVYYCARDLPGFAYWGQGTLVTVSS
VL: DIVMTQSPDSLAVSLGERATINCKSSQSLFNSHTRKNYLAWYQQKPGQPPKLLIYWASARGSGVPDRFSGSGSGTDFTLTISSLQAEDVAVYYCKQSFRLRTFGGGTKVEIK
notes: Tested as Fab
B6 gave an MFI in [1] of 7400. Also, in assay [2], the Kd was determined as 0.39 nM, the koff was 0.00063 s⁻¹, the kon is 1.6e+06 M⁻¹ s⁻¹ and the “t½” value worked out at 18.2 min. In assay [3], this molecule registered an MFI of 3610. In [4], this molecule had an MFI of 3890.

B7: humanized anti-CXCR4 antibody h3G10.A57 (antibody, V domains shown)
VH: EVQLVESGGGLVQPGGSLRLSCAASGFTFSDYYMSWVRQAPGKGLEWVGFIRHKANFYTTEYSTSVKGRFTISRDDSKNSLYLQMNSLKTEDTAVYYCARDLPGFAYWGQGTLVTVSS
VL: DIVMTQSPDSLAVSLGERATINCKSSQSLFNSRTRKNYLAWYQQKPGQPPKLLIYWASARESGVPDRFSGSGSGTDFTLTISSLQAEDVAVYYCKQSFNLRTFGGGTKVEIK
In the case of B7, in assay [5], the “IC50 (M), Calcium Flux Activity” value was found to be 1.69e-09 M.

B8: h3G10.2.37 VH / h3G10.2.72 VL Fab (Fab, V domains shown)
VH: EVQLVESGGGLVQPGGSLRLSCAASGFTFSDYYMSWVRQAPGKGLEWVGFIRHKANFYTREYSTSVKGRFTISRDDSKNSLYLQMNSLKTEDTAVYYCARDLPGFAYWGQGTLVTVSS
VL: DIVMTQSPDSLAVSLGERATINCKSSQSLFNSRTRKNYLAWYQQKPGQPPKLLIYWASARESGVPDRFSGSGSGTDFTLTISSLQAEDVAVYYCKQSFRLRTFGGGTKVEIK
notes: Tested as Fab
As to B8, the MFI in assay [1] was 6240. Moreover, in assay [2], the dissociation constant Kd came out at 0.35 nM, the off-rate constant (koff) amounted to 0.0008 s⁻¹, the kon was determined as 2.3e+06 M⁻¹ s⁻¹ and the “t½” value amounted to 14.4 min. The MFI in assay [3] was found to be 2920. Besides, in assay [4], the MFI was determined as 2890.

B9: humanized anti-CXCR4 antibody h3G10.1.91.A58B (antibody, V domains shown)
VH: EVQLVESGGGLVQPGGSLRLSCAASGFTFSDYYMSWVRQAPGKGLEWVGFIRHKANFETTEYSTSVKGRFTISRDDSKNSLYLQMNSLKTEDTAVYYCARDLPGFAYWGQGTLVTVSS
VL: DIVMTQSPDSLAVSLGERATINCKSSQSLFNSHTRKNYLAWYQQKPGQPPKLLIYWASARGSGVPDRFSGSGSGTDFTLTISSLQAEDVAVYYCKQSFNLRTFGGGTKVEIK
notes: Whole antibody (detected with an anti-human IgG Fc gamma specific second antibody); also called h3G10.1.91 VH / h3G10.A58B VL; CXCR4 Ab h3G10.1.91.A58B
For the molecule B9, the half-maximal effective concentration (EC50) with cynomolgus CXCR4 [7] stood at 2.58 nM; with cynomolgus CXCR4 [8], 0.16 nM; in [9] it was 0.27 nM; in [10], 3.05 nM. Besides, the “IC50 (M), Calcium Flux Activity” value in assay [5] was 2.17e-09 M. Also, in assay [6], the “EC50 (M), cAMP assay” value worked out at 3.92e-08 M.

B10: h3G10 VH / h3G10 VL Fab (Fab, V domains shown)
VH: EVQLVESGGGLVQPGGSLRLSCAASGFTFSDYYMSWVRQAPGKGLEWVGFIRHKANGYTTEYSTSVKGRFTISRDDSKNSLYLQMNSLKTEDTAVYYCARDLPGFAYWGQGTLVTVSS
VL: DIVMTQSPDSLAVSLGERATINCKSSQSLFNSRTRKNYLAWYQQKPGQPPKLLIYWASARESGVPDRFSGSGSGTDFTLTISSLQAEDVAVYYCKQSFNLRTFGGGTKVEIK
notes: Tested as Fab; also called h3G10 Fab
On to B10, for which the MFI in assay [1] amounted to 2460. In addition, in [2], the Kd was 1.9 nM, the off-rate (koff) was 0.003 s⁻¹, the kon worked out at 1.6e+06 M⁻¹ s⁻¹ and the “t½” value is 3.9 min. In [3], this molecule displayed an MFI of 563. In assay [4], this molecule gave an MFI of 1360.

B11: h3G10.A57 VH / h3G10 VL Fab (Fab, V domains shown)
VH: EVQLVESGGGLVQPGGSLRLSCAASGFTFSDYYMSWVRQAPGKGLEWVGFIRHKANFYTTEYSTSVKGRFTISRDDSKNSLYLQMNSLKTEDTAVYYCARDLPGFAYWGQGTLVTVSS
VL: DIVMTQSPDSLAVSLGERATINCKSSQSLFNSRTRKNYLAWYQQKPGQPPKLLIYWASARESGVPDRFSGSGSGTDFTLTISSLQAEDVAVYYCKQSFNLRTFGGGTKVEIK
notes: Tested as Fab; also called h3G10.A57 VH / h3G10 L
In the case of B11, the MFI in assay [1] stood at 4060. In assay [2], the Kd is 1.22 nM, the koff turned out to be 0.00143 s⁻¹, the kon worked out at 1.17e+06 M⁻¹ s⁻¹ and the “t½” value stood at 8.08 min. The molecule further came in with an MFI in [3] of 868. Besides, the MFI in [4] was determined as 1340.

B12: h3G10.1.91 VH / h3G10.2.72 VL Fab (Fab, V domains shown)
VH: EVQLVESGGGLVQPGGSLRLSCAASGFTFSDYYMSWVRQAPGKGLEWVGFIRHKANFETTEYSTSVKGRFTISRDDSKNSLYLQMNSLKTEDTAVYYCARDLPGFAYWGQGTLVTVSS
VL: DIVMTQSPDSLAVSLGERATINCKSSQSLFNSRTRKNYLAWYQQKPGQPPKLLIYWASARESGVPDRFSGSGSGTDFTLTISSLQAEDVAVYYCKQSFRLRTFGGGTKVEIK
notes: Tested as Fab
For the molecule B12, the MFI in [1] amounted to 7020. Besides, in assay [2], the equilibrium dissociation constant (Kd) stood at 0.33 nM, the off-rate (koff) came out at 0.00049 s⁻¹, the kon was found to be 1.5e+06 M⁻¹ s⁻¹ and the “t½” value is 23.5 min. This molecule displayed an MFI in assay [3] of 2670. The molecule further registered an MFI in assay [4] of 2350.
